Results taken from the supplement of paper PMC11316812.
± gives the standard deviation of the averaged measurements.

Legend:
[1] = tested on: hTERT-HMEC; test: percentage of EdU-negative (G0-arrested) nuclei per well, 72 h; higher = more G0 arrest; settings: reference: sequence is the full UniProt precursor, the tested protein was the secreted form or ectodomain
[2] = tested on: MCF7; test: as above; settings: reference: sequence is the full UniProt precursor, the tested protein was the secreted form or ectodomain
[3] = protein concentration 0.01425 µM
[4] = protein concentration 0.1425 µM
[5] = protein concentration 0.0225 µM
[6] = protein concentration 0.01625 µM
[7] = protein concentration 0.1625 µM
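Also: secreted proteins added to cultured cells, EdU pulse at the end, nuclei found by Hoechst imaging, EdU status from nuclear versus surrounding ring intensity ratio, PBS as neutral control.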

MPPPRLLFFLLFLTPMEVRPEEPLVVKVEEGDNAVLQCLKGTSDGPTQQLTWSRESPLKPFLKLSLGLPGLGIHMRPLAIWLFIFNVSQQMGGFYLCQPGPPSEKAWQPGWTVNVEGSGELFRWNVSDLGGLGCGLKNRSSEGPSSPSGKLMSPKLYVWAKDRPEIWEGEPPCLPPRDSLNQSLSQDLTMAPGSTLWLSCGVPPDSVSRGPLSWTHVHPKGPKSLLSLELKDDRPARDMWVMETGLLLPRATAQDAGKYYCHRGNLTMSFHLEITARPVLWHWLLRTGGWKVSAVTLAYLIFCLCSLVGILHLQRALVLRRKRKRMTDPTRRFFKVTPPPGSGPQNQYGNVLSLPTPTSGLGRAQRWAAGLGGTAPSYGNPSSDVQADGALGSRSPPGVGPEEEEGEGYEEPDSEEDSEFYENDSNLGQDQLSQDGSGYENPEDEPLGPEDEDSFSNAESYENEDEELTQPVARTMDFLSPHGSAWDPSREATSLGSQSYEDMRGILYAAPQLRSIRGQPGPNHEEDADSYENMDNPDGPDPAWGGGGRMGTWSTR
percentage of EdU-negative [1, 3]: 5.66 ± 0.95% | percentage of EdU-negative [1, 4]: 8.73 ± 0.49% | percentage of EdU-negative [2, 3]: 25.2 ± 1.1% | percentage of EdU-negative [2, 4]: 26.2 ± 0.68%

MLRRRGSPGMGVHVGAALGALWFCLTGALEVQVPEDPVVALVGTDATLCCSFSPEPGFSLAQLNLIWQLTDTKQLVHSFAEGQDQGSAYANRTALFPDLLAQGNASLRLQRVRVADEGSFTCFVSIRDFGSAAVSLQVAAPYSKPSMTLEPNKDLRPGDTVTITCSSYQGYPEAEVFWQDGQGVPLTGNVTTSQMANEQGLFDVHSILRVVLGANGTYSCLVRNPVLQQDAHSSVTITPQRSPTGAVEVQVPEDPVVALVGTDATLRCSFSPEPGFSLAQLNLIWQLTDTKQLVHSFTEGRDQGSAYANRTALFPDLLAQGNASLRLQRVRVADEGSFTCFVSIRDFGSAAVSLQVAAPYSKPSMTLEPNKDLRPGDTVTITCSSYRGYPEAEVFWQDGQGVPLTGNVTTSQMANEQGLFDVHSVLRVVLGANGTYSCLVRNPVLQQDAHGSVTITGQPMTFPPEALWVTVGLSVCLIALLVALAFVCWRKIKQSCEEENAGAEDQDGEGEGSKTALQPLKHSDSKEDDGQEIA [Q5ZPR3]
percentage of EdU-negative ([1]; protein concentration 0.019 µM): 5.89 ± 0.34% | percentage of EdU-negative ([1]; protein concentration 0.19 µM): 9.74 ± 0.48% | percentage of EdU-negative ([2]; protein concentration 0.019 µM): 24.4 ± 2.3% | percentage of EdU-negative ([2]; protein concentration 0.19 µM): 27.33 ± 0.26%

MKENYCLQAALVCLGMLCHSHAFAPERRGHLRPSFHGHHEKGKEGQVLQRSKRGWVWNQFFVIEEYTGPDPVLVGRLHSDIDSGDGNIKYILSGEGAGTIFVIDDKSGNIHATKTLDREERAQYTLMAQAVDRDTNRPLEPPSEFIVKVQDINDNPPEFLHETYHANVPERSNVGTSVIQVTASDADDPTYGNSAKLVYSILEGQPYFSVEAQTGIIRTALPNMDREAKEEYHVVIQAKDMGGHMGGLSGTTKVTITLTDVNDNPPKFPQSVYQMSVSEAAVPGEEVGRVKAKDPDIGENGLVTYNIVDGDGMESFEITTDYETQEGVIKLKKPVDFETKRAYSLKVEAANVHIDPKFISNGPFKDTVTVKISVEDADEPPMFLAPSYIHEVQENAAAGTVVGRVHAKDPDAANSPIRYSIDRHTDLDRFFTINPEDGFIKTTKPLDREETAWLNITVFAAEIHNRHQEAKVPVAIRVLDVNDNAPKFAAPYEGFICESDQTKPLSNQPIVTISADDKDDTANGPRFIFSLPPEIIHNPNFTVRDNRDNTAGVYARRGGFSRQKQDLYLLPIVISDGGIPPMSSTNTLTIKVCGCDVNGALLSCNAEAYILNAGLSTGALIAILACIVILLVIVVLFVTLRRQKKEPLIVFEEEDVRENIITYDDEGGGEEDTEAFDIATLQNPDGINGFIPRKDIKPEYQYMPRPGLRPAPNSVDVDDFINTRIQEADNDPTAPPYDSIQIYGYEGRGSVAGSLSSLESATTDSDLDYDYLQNWGPRFKKLADLYGSKDTFDDDS
percentage of EdU-negative [1, 5]: 5.18 ± 0.56% | percentage of EdU-negative ([1]; protein concentration 0.225 µM): 9.88 ± 1.5% | percentage of EdU-negative [2, 5]: 25.4 ± 0.51% | percentage of EdU-negative ([2]; protein concentration 0.225 µM): 32.3 ± 2%

MLHLLALFLHCLPLASGDYDICKSWVTTDEGPTWEFYACQPKVMRLKDYVKVKVEPSGITCGDPPERFCSHENPYLCSNECDASNPDLAHPPRLMFDKEEEGLATYWQSITWSRYPSPLEANITLSWNKTVELTDDVVMTFEYGRPTVMVLEKSLDNGRTWQPYQFYAEDCMEAFGMSARRARDMSSSSAHRVLCTEEYSRWAGSKKEKHVRFEVRDRFAIFAGPDLRNMDNLYTRLESAKGLKEFFTLTDLRMRLLRPALGGTYVQRENLYKYFYAISNIEVIGRCKCNLHANLCSMREGSLQCECEHNTTGPDCGKCKKNFRTRSWRAGSYLPLPHGSPNACATAGSFGNCECYGHSNRCSYIDFLNVVTCVSCKHNTRGQHCQHCRLGYYRNGSAELDDENVCIECNCNQIGSVHDRCNETGFCECREGAAGPKCDDCLPTHYWRQGCYPNVCDDDQLLCQNGGTCLQNQRCACPRGYTGVRCEQPRCDPADDDGGLDCDRAPGAAPRPATLLGCLLLLGLAARLGR [Q96CW9]
percentage of EdU-negative [1, 5]: 5.1 ± 0.37% | percentage of EdU-negative ([1]; protein concentration 0.225 µM): 5.79 ± 0.16% | percentage of EdU-negative [2, 5]: 28.5 ± 0.47% | percentage of EdU-negative ([2]; protein concentration 0.225 µM): 28.61 ± 0.091%

MEVTCLLLLALIPFHCRGQGVYAPAQAQIVHAGQACVVKEDNISERVYTIREGDTLMLQCLVTGHPRPQVRWTKTAGSASDKFQETSVFNETLRIERIARTQGGRYYCKAENGVGVPAIKSIRVDVQYLDEPMLTVHQTVSDVRGNFYQEKTVFLRCTVNSNPPARFIWKRGSDTLSHSQDNGVDIYEPLYTQGETKVLKLKNLRPQDYASYTCQVSVRNVCGIPDKAITFRLTNTTAPPALKLSVNETLVVNPGENVTVQCLLTGGDPLPQLQWSHGPGPLPLGALAQGGTLSIPSVQARDSGYYNCTATNNVGNPAKKTVNLLVRSMKNATFQITPDVIKESENIQLGQDLKLSCHVDAVPQEKVTYQWFKNGKPARMSKRLLVTRNDPELPAVTSSLELIDLHFSDYGTYLCMASFPGAPVPDLSVEVNISSETVPPTISVPKGRAVVTVREGSPAELQCEVRGKPRPPVLWSRVDKEAALLPSGLPLEETPDGKLRLERVSRDMSGTYRCQTARYNGFNVRPREAQVQLNVQFPPEVEPSSQDVRQALGRPVLLRCSLLRGSPQRIASAVWRFKGQLLPPPPVVPAAAEAPDHAELRLDAVTRDSSGSYECSVSNDVGSAACLFQVSAKAYSPEFYFDTPNPTRSHKLSKNYSYVLQWTQREPDAVDPVLNYRLSIRQLNQHNAVVKAIPVRRVEKGQLLEYILTDLRVPHSYEVRLTPYTTFGAGDMASRIIHYTEPINSPNLSDNTCHFEDEKICGYTQDLTDNFDWTRQNALTQNPKRSPNTGPPTDISGTPEGYYMFIETSRPRELGDRARLVSPLYNASAKFYCVSFFYHMYGKHIGSLNLLVRSRNKGALDTHAWSLSGNKGNVWQQAHVPISPSGPFQIIFEGVRGPGYLGDIAIDDVTLKKGECPRKQTDPNKVVVMPGSGAPCQSSPQLWGPMAIFLLALQR [Q8NFP4]
percentage of EdU-negative [1, 6]: 4.84 ± 1.1% | percentage of EdU-negative [1, 7]: 5.63 ± 0.16% | percentage of EdU-negative [2, 6]: 25.1 ± 2% | percentage of EdU-negative [2, 7]: 26.2 ± 1.5%
